Source: publication PMC12724136, “Design of antibody structure-guided epitope vaccines in silico to induce potent immune responses against emerging viruses” (Journal of Virology, 2025)

B1: unnamed (parent)
chain 1: MSHRLTCAYSGFSSDIHAVWVRQAAGKGLEWIAYISDSSAYIYYSQSVRGRFTISRDNSRKQVYLQMNSLTTEDSAVYYCTREGSGFAFDYWGKGTGGGGSGGGGSGGGGSVTISATGSSNIGADLSWYLQKTGETPKLLIYKASTRSSGTPPRFSGSTSGSQYTLTISGVQAEDAGDYYCLGDHGGGALTFGGGTK
chain 2: GYQLASEIRGTIPLSS
B2: unnamed (parent)
chain 1: B1 chain 1
chain 2: NIEWGDEVDLEM
B3: unnamed (parent)
chain 1: B1 chain 1
chain 2: DAIGMGSIGVMLAYMVRRKC

Variants of: B1
Test: indirect ELISA
Details: with partner chain of the complex shown, scFv1 protein 50 µg/mL, value read at the highest peptide concentration, parent: 1.6, read off a plot

Row | Variant | response (Binding activity)
1 | chain 2 Y2A R9A L14A | 0.63

Same assay, conditions: with partner chain of the complex shown; peptides 50 µg/mL; scFv1 group of bars; parent: 1.6; read off a plot

Row | Variant | response (Binding activity)
2 | chain 2 Y2A R9A L14A | 0.62

Same assay, conditions: with partner chain of the complex shown; scFv1 50 µg/mL

Row | Variant | EC50 (lg EC50 (µg/mL))
3 | chain 2 Y2A R9A L14A | 3.57

Same assay, conditions: with partner chain of the complex shown; scFv1 50 µg/mL; value read at the highest peptide concentration, log10 = 2 (µg/mL); parent: 1.9; read off a plot

Row | Variant | response (Binding activity)
4 | chain 2 Y2A R9A L14A | 0.58

Variants of: B2
Test: indirect ELISA
Details: with partner chain of the complex shown, scFv1 protein 50 µg/mL, value read at the highest peptide concentration, parent: 1.3, read off a plot

Row | Variant | response (Binding activity)
5 | chain 2 W4A D6A E7A D9A | 0.53

Same assay, conditions: with partner chain of the complex shown; peptides 50 µg/mL; scFv1 group of bars; parent: 1.3; read off a plot

Row | Variant | response (Binding activity)
6 | chain 2 W4A D6A E7A D9A | 0.52

Same assay, conditions: with partner chain of the complex shown; scFv1 50 µg/mL

Row | Variant | EC50 (lg EC50 (µg/mL))
7 | chain 2 W4A D6A E7A D9A | 4.17

Same assay, conditions: with partner chain of the complex shown; scFv1 50 µg/mL; value read at the highest peptide concentration, log10 = 2 (µg/mL); parent: 0.77; read off a plot

Row | Variant | response (Binding activity)
8 | chain 2 W4A D6A E7A D9A | 0.47

Variants of: B3
Test: indirect ELISA
Details: with partner chain of the complex shown, scFv1 protein 50 µg/mL, value read at the highest peptide concentration, parent: 0.98, read off a plot

Row | Variant | response (Binding activity)
9 | chain 2 S7A V10A R17A | 0.46

Same assay, conditions: with partner chain of the complex shown; peptides 50 µg/mL; scFv1 group of bars; parent: 0.98; read off a plot

Row | Variant | response (Binding activity)
10 | chain 2 S7A V10A R17A | 0.55

Same assay, conditions: with partner chain of the complex shown; scFv1 50 µg/mL

Row | Variant | EC50 (lg EC50 (µg/mL))
11 | chain 2 S7A V10A R17A | 3.96

Same assay, conditions: with partner chain of the complex shown; scFv1 50 µg/mL; value read at the highest peptide concentration, log10 = 2 (µg/mL); parent: 0.95; read off a plot

Row | Variant | response (Binding activity)
12 | chain 2 S7A V10A R17A | 0.47
